Measured values reported in article PMC7311918.

Key:
[1] = target: MERS-CoV S 2P trimer (S ectodomain, residues 19-1294) (MERS-CoV) (UniProt K9N5Q8); assay: SEC-MALS
[2] = target: SARS-CoV S 2P trimer (S ectodomain, residues 12-1193) (SARS-CoV) (UniProt P59594); assay: SEC-MALS

Row | Substance | stoichiometry N [1] | stoichiometry N [2]
1 | MERS-CoV S 2P trimer (S ectodomain, residues 19-1294) (from UniProt K9N5Q8 19-1294) (natural protein) | 3 | –
2 | SARS-CoV S 2P trimer (S ectodomain, residues 12-1193) (from UniProt P59594 12-1193) (natural protein) | – | 3
